From patent US20080293922A1 (POSCO, published 2008) come the findings set out here.

In this experiment the target is T1, neuropilin-1 on MDA-MB-231 tumor cells (UniProt O14786 22-923, limits assumed).
T1 construct: whole, on cells
Description: Binding of VEGF to MDA-MB-231 cells with or without Aβ peptides (data not shown).

B1: Vascular endothelial growth factor VEGF165 (ligand)
chain: APMAEGGGQNHHEVVKFMDVYQRSYCHPIETLVDIFQEYPDEIEYIFKPSCVPLMRCGGCCNDEGLECVPTEESNITMQIMRIKPHQGQHIGEMSFLQHNKCECRPKKDRARQENPCGPCSERRKHLFVQDPQTCKCSCKNTDSRCKARQLELNERTCRCDKPRR
modifications: 125I label in the radioligand, co-aggregation, dissociation and trapping assays (position not given)
notes: 125I-VEGF was bought from Amersham; also called 125I-VEGF; 125I-VEGF165
For the molecule B1, the binding result is given as “binds”.
